Measurements: article PMC6389498, “Control of Bacterial Virulence through the Peptide Signature of the Habitat” (Cell Reports, 2019)

Legend:
[1] = target: PrfA (recombinant PrfA^WT from E. coli BL21(pET28aprfA^WT), used in the biophysical assays) (Listeria monocytogenes) (UniProt P22262)
[2] = target: PrfA (recombinant PrfA^WT from E. coli BL21(pET28aprfA^WT), used in the biophysical assays) (Listeria monocytogenes) (UniProt P22262); test: ITC; GE MicroCal iTC200; 100 uM PrfA in the cell, 2 uL of 250 uM peptide injected every 60 s; 50 mM Tris pH 7.5, 500 mM NaCl; one-site model
[3] = target: PrfA (full-length PrfA^WT with two non-native N-terminal residues GA after TEV cleavage, used for crystallization) (Listeria monocytogenes) (UniProt P22262); test: crystal structure

Chain of PrfA (recombinant PrfA^WT from E. coli BL21(pET28aprfA^WT), used in the biophysical assays) (Listeria monocytogenes) (P22262 whole entry): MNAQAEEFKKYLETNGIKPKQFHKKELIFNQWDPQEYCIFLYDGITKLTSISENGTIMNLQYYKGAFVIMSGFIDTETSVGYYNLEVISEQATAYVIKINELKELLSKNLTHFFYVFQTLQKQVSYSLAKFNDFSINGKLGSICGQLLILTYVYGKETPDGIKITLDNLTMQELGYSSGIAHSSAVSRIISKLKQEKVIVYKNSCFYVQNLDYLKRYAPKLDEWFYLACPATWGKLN
Chain of PrfA (full-length PrfA^WT with two non-native N-terminal residues GA after TEV cleavage, used for crystallization) (P22262 1-237, tags left off): as the sequence (P22262 whole entry) above

| Substance | other [1] [%] | Kd [2] [µM] | stoichiometry N [3] |
| --- | --- | --- | --- |
| LLL peptide (Leu tripeptide) | 87 | 25 | – |
| LL peptide (Leu dipeptide, L-leucylleucine) | 93 | 25 | – |
| PrfA (full-length PrfA^WT with two non-native N-terminal residues GA after TEV cleavage, used for crystallization) (from UniProt P22262 1-237) (natural protein) | – | – | 2 |
